Here are results for three substances from publication PMC8698333.

Assay [1] addresses human kappa opioid receptor Tango construct (tTA-hKOR) (human) (UniProt P41145).
Assay [2] has as its target human kappa opioid receptor fused to the alpha7 nicotinic signal peptide and eGFP (pcDNA3.1) (human) (UniProt P41145).
For assay [3], the target named is human kappa opioid receptor, stably expressed in CHO cells (hKOR-CHO) (human) (UniProt P41145).
Chain of human kappa opioid receptor, stably expressed in CHO cells (hKOR-CHO) (human) (P41145 whole entry): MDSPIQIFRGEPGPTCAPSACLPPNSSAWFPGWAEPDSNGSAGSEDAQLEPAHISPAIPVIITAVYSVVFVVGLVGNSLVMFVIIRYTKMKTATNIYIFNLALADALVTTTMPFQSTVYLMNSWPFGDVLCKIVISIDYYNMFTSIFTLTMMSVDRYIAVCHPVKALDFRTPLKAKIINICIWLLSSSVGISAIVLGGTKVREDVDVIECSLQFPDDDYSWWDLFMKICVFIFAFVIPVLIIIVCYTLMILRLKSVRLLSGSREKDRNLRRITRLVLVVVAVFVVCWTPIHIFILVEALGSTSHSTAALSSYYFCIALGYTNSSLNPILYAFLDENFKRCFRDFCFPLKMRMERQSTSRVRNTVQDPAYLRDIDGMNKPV

Chain of human kappa opioid receptor fused to the alpha7 nicotinic signal peptide and eGFP (pcDNA3.1) (human) (P41145 whole entry, the tested form may be a part): as the sequence (P41145 whole entry) above
Chain of human kappa opioid receptor Tango construct (tTA-hKOR) (human) (P41145 whole entry, the tested form may be a part): as the sequence (P41145 whole entry) above

Turning to Dynorphin A L5S mutant peptide, in assay [1], the PRESTO-Tango β-arrestin recruitment: fold shift of EC50 against the mean of same day DynA WT controls was determined as 13 fold shift. Besides, the TRUPATH (BRET) G-protein dissociation, Gα3 subunit: fold shift of EC50 against the mean of same day DynA WT controls in assay [2] was determined as 7 fold shift.
In the case of Dynorphin A R6W mutant peptide, the PRESTO-Tango β-arrestin recruitment: fold shift of EC50 against the mean of same day DynA WT controls in assay [1] worked out at 16 fold shift. The TRUPATH (BRET) G-protein dissociation, Gα3 subunit: fold shift of EC50 against the mean of same day DynA WT controls in assay [2] was found to be 11 fold shift. Moreover, in assay [3], the EC50 of [35S]GTPγS binding to hKOR-CHO cell membranes (G-protein activation) amounted to 105 nM and the efficacy (maximal [35S]GTPγS binding to hKOR-CHO cell membranes) came to 1240 CPM.
Dynorphin A R9C mutant peptide: the PRESTO-Tango β-arrestin recruitment: fold shift of EC50 against the mean of same day DynA WT controls in assay [1] worked out at 5 fold shift. For the same substance, the TRUPATH (BRET) G-protein dissociation, Gα3 subunit: fold shift of EC50 against the mean of same day DynA WT controls in assay [2] worked out at 3 fold shift.
